According to article PMC11996864, “A small-molecule inhibitor of BCL10-MALT1 interaction abrogates progression of diffuse large B cell lymphoma” (The Journal of Clinical Investigation, 2025):
Values joined by “and” are separate entries in the source; they are usually repeats but may differ in a detail not shown here. Identical values can stand only once.

Assays:
BCL10 [1] = molecular target: T1, BCL10 (Homo sapiens, UniProt O95999); test: ELISA binding of recombinant MALT1 or GRK2 to immobilized BCL10; conditions: protein added to immobilized BCL10
T1 construct: Full-length GST-BCL10 (Abnova, catalog H00008915-P01) was immobilized onto a gold sensor chip surface; GST (N); purchased Abnova H00008915-P01
T1 sequence (O95999 1-233): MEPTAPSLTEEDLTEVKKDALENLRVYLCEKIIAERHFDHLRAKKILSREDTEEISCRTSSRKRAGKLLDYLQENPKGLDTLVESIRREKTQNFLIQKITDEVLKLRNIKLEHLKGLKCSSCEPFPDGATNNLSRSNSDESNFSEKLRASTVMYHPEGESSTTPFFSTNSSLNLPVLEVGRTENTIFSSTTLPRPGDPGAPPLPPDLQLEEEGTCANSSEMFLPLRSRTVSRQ
Experimental: ELISA-based protein-protein interaction assay. On a high-binding 96-well ELISA microplate (Greiner Cat# 655061), 100 ng of His-tagged recombinant human full-length BCL10 protein (Novus Cat# NBP1-99064) or in 100 µl PBS was allowed to adhere overnight at 4°C. The plate was blocked with 5% BSA in PBS for 1 hour at room temperature. After washing twice with PBS-T, a mixture of 100 ng of GST-tagged recombinant human full-length MALT1 protein (Novus Biologicals Cat# H00010892-P01) and compound that was preincubated for 1 hour in 100 μl PBS was added to the plate for 1 hour at room temperature. After washing three times with PBS-T, anti-MALT1 antibody (Cell Signaling Technology, Cat# 2494) in 5% BSA in PBS was added at 1:1000 dilution for 1 hour at room temperature. After washing three times with PBS-T, HRP-conjugated secondary antibody in 5% BSA in PBS was added at 1:5000 dilution for 1 hour at room temperature. After washing three times with PBS-T, 100 µl of 3,3’,5,5’-tetramethylbenzidine (TMB) substrate solution (Thermo Scientific, Cat# 34028) was added for up to 15 minutes, and 100 µl of 2 M sulfuric acid was added to stop the reaction. The plate was read at 450 nm using a spectrophotometer (Molecular Devices SpectraMax i3). […]

Full-length GST-BCL10 = molecular target: T2, Full-length GST-BCL10 (UniProt O95999 1-233); test: SPR; Biacore 2000; full-length GST-BCL10 immobilised on a gold sensor chip surface, purified MALT1 fragments injected as analyte; Langmuir model, global fitting, 1:1 binding; conditions: both partners purified
T2 construct: BCL10, full length; also called immobilized BCL10; source: bought: Abnova, catalog H00008915-P01
T2 sequence (looked up): T1 sequence (O95999 1-233)

BCL10 [2] = molecular target: T1, BCL10; test: SPR binding of MALT1 protein fragments to immobilized BCL10
Experimental: Surface plasmon resonance (SPR) experiments were performed on a Biacore 2000 system (Cytiva). Full-length GST-BCL10 (Abnova, catalog H00008915-P01) was immobilized onto a gold sensor chip surface, and analyte solution containing MALT1(DD+Ig1-2), MALT1(DD), or MALT1(Ig1-2) purified protein was injected over the surface through a series of flow cells (see Supplemental Methods for details on protein purification). The binding kinetic parameters were obtained using the Langmuir model for global fitting with 1:1 binding ratio where one ligand molecule interacts with one analyte molecule. The equilibrium dissociation constant (KD) of M1i-124 to full-length GST-tagged MALT1 (Novus, catalog H00010892-P01) protein was determined by Creative Biolabs using Biacore T200. Full-length MALT1 protein was immobilized onto CM5 sensor chip surface, and M1i-124 was injected at concentrations of 0, 12.5, 25, 50, 100, and 200 μM. The steady-state affinity model was used to determine the KD.
Supplemental Materials and Methods
Cell lines and reagents. The DLBCL cell lines OCI-Ly1, OCI-Ly3, and OCI-Ly7 were provided by Mark D. Minden (University Health Network, Toronto, Ontario, Canada) , TMD8 cell line was provided by Louis Staudt (National Cancer Institute, NIH, Bethesda Maryland), and the BJAB cell line was provided by Mathijs Baens (Katholieke Universiteit Leuven, Leuven, Belgium). […]

## BCL10 + GRK2
BCL10 [1]
  OD450: 0.226 and 0.156

## BCL10 + MALT1
BCL10 [1]
  OD450: 0.851 and 0.825

B1: MALT1(DD+Ig1-2) purified protein (domain or fragment)
chain: MSLLGDPLQALPPSAAPTGPLLAPPAGATLNRLREPLLRRLSELLDQAPEGRGWRRLAELAGSRGRLRLSCLDLEQCSLKVLEPEGSPSLCLLKLMGEKGCTVTELSDFLQAMEHTEVLQLLSPPGIKITVNPESKAVLAGQFVKLCCRATGHPFVQYQWFKMNKEIPNGNTSELIFNAVHVKDAGFYVCRVNNNFTFEFSQWSQLDVCDIPESFQRSVDGVSESKLQICVEPTSQKLMPGSTLVLQCVAVGSPIPHYQWFKNELPLTHETKKLYMVPYVDLEHQGTYWCHVYNDRDSQDSKKVEIIIDELNNLGHPDNKEQTTDQ
modifications: Printed as aa 1-326, MBP tag removed by TEV. Taken in isoform B numbering (lacks 309-319): the paper uses isoform B (C-terminus at 813), and the 3K0W construct, 199 residues after its tag and ending …
Full-length GST-BCL10
  Kd: 25 nM

B2: MALT1(DD+Ig1-2): Recombinant human MALT1 fragment, death domain plus Ig1-2 domains (aa 1-326) (protein, UniProt Q9UDY8 1-326, looked up, fragment)
chain: MSLLGDPLQALPPSAAPTGPLLAPPAGATLNRLREPLLRRLSELLDQAPEGRGWRRLAELAGSRGRLRLSCLDLEQCSLKVLEPEGSPSLCLLKLMGEKGCTVTELSDFLQAMEHTEVLQLLSPPGIKITVNPESKAVLAGQFVKLCCRATGHPFVQYQWFKMNKEIPNGNTSELIFNAVHVKDAGFYVCRVNNNFTFEFSQWSQLDVCDIPESFQRSVDGVSESKLQICVEPTSQKLMPGSTLVLQCVAVGSPIPHYQWFKNELPLTHETKKLYMVPYVDLEHQGTYWCHVYNDRDSQDSKKVEIIIGRTDEAVECTEDELNNLG
BCL10 [2]; MALT1 fragment over immobilized BCL10
  Kd: 25 nM

B3: MALT1(DD): Recombinant human MALT1 fragment, death domain only (aa 29-124) (protein, UniProt Q9UDY8 29-124, looked up, fragment)
chain: TLNRLREPLLRRLSELLDQAPEGRGWRRLAELAGSRGRLRLSCLDLEQCSLKVLEPEGSPSLCLLKLMGEKGCTVTELSDFLQAMEHTEVLQLLSP
BCL10 [2]; result in words
  binding to BCL10: no detectable binding

B4: MALT1(Ig1-2) purified protein (domain or fragment)
chain: KITVNPESKAVLAGQFVKLCCRATGHPFVQYQWFKMNKEIPNGNTSELIFNAVHVKDAGFYVCRVNNNFTFEFSQWSQLDVCDIPESFQRSVDGVSESKLQICVEPTSQKLMPGSTLVLQCVAVGSPIPHYQWFKNELPLTHETKKLYMVPYVDLEHQGTYWCHVYNDRDSQDSKKVEIII
notes: MALT1, tandem Ig-like domains Ig1 and Ig2; PDB 3K0W is the published MALT1(Ig1-2) crystal structure, whose limits may differ from this construct; Host, tags and limits are in Supplemental Methods; source: purified protein (purification in Supplemental Methods)
Full-length GST-BCL10
  Kd: 29 nM
